Results on one substance are retold here after publication PMC9884274.

This test addresses WT Atezolizumab scFv-His6, purified. The test is described as follows: mass photometry; Refeyn TwoMP, room temperature, 1X PBS; PD-L1 at 7.4, 18.5 and 74 nM; each scFv at 100 nM.

In general, stoichiometry N refers to the number of molecules, sites or subunits per partner or assembly.

With WT Atezolizumab scFv-His6, purified, the stoichiometry N stood at 2.
